In data set [1] the target is human LI-cadherin EC1-5 (human). Kind of data set: AUC.
Data set [2] concerns the molecule itself. Kind of data set: AUC.

As usually defined, the Kd is the constant that tells how readily two partners part at equilibrium. High values mean a looser complex, low ones a tighter complex. In general, stoichiometry N refers to a count of units in the complex or per binding partner.

With “human LI-cadherin EC1-5 (domain or fragment)”, in data set [1], the Kd turned out to be 22.8 µM and the stoichiometry N stood at 2.

B1: human LI-cadherin EC1-4 (domain or fragment)
chain: QEGKFSGPLKPMTFSIYEGQEPSQIIFQFKANPPAVTFELTGETDNIFVIEREGLLYYNRALDRETRSTHNLQVAALDANGIIVEGPVPITIKVKDINDNRPTFLQSKYEGSVRQNSRPGKPFLYVNATDLDDPATPNGQLYYQIVIQLPMINNVMYFQINNKTGAISLTREGSQELNPAKNPSYNLVISVKDMGGQSENSFSDTTSVDIIVTENIWKAPKPVEMVENSTDPHPIKITQVRWNDPGAQYSLVDKEKLPRFPFSIDQEGDIYVTQPLDREEKDAYVFYAVAKDEYGKPLSYPLEIHVKVKDINDNPPTCPSPVTVFEVQENERLGNSIGTLTAHDRDEENTANSFLNYRIVEQTPKLPMDGLFLIQTYAGMLQLAKQSLKKQDTPQYNLTIEVSDKDFKTLCFVQINVID
modifications: N-glycans (four partial N-glycans modelled in chain A and two in chain B of the crystal structure)
Consider B1, for which, in data set [2], binding was put at a Kd of 39.8 µM and the “stoichiometry N” value amounted to 2.

B2: human LI-cadherin EC1-2 (domain or fragment)
chain: GPLKPMTFSIYEGQEPSQIIFQFKANPPAVTFELTGETDNIFVIEREGLLYYNRALDRETRSTHNLQVAALDANGIIVEGPVPITIKVKDINDNRPTFLQSKYEGSVRQNSRPGKPFLYVNATDLDDPATPNGQLYYQIVIQLPMINNVMYFQINNKTGAISLTREGSQELNPAKNPSYNLVISVKDMGGQSENSFSDTTSVDIIVTE
Take B2: in data set [2], binding was put at a Kd of 75 µM and the “stoichiometry N” value is 2.

Values taken from publication doi:10.1101/2020.09.18.291195 (bioRxiv, 2020).
